Source: PMC11811199 (EMBO Reports, 2024)

Target: T1, DYRK4-His (UniProt Q9NR20 1-520)
T1 construct: also called recombinant DYRK4; pET30a-DYRK4-his; not shown: His, C-terminal, kept
T1 sequence (looked up): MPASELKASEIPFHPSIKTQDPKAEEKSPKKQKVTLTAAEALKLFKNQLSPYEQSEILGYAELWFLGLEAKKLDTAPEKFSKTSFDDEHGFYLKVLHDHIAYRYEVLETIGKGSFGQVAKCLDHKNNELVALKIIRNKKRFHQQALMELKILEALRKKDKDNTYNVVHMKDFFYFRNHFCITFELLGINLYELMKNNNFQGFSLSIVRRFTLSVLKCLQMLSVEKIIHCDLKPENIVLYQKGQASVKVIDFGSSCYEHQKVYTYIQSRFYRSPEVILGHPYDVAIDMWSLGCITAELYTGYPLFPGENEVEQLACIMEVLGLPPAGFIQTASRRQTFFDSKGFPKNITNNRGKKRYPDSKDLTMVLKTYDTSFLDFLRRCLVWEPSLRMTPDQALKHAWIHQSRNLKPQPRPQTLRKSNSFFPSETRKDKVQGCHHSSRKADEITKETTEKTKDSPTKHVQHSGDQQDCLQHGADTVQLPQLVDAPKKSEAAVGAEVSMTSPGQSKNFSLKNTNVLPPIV
Test: pull-down
Details: both partners purified

B1: GST-IRF3 (natural protein, UniProt Q14653 1-427, looked up)
chain: MGTPKPRILPWLVSQLDLGQLEGVAWVNKSRTRFRIPWKHGLRQDAQQEDFGIFQAWAEATGAYVPGRDKPDLPTWKRNFRSALNRKEGLRLAEDRSKDPHDPHKIYEFVNSGVGDFSQPDTSPDTNGGGSTSDTQEDILDELLGNMVLAPLPDPGPPSLAVAPEPCPQPLRSPSLDNPTPFPNLGPSENPLKRLLVPGEEWEFEVTAFYRGRQVFQQTISCPEGLRLVGSEVGDRTLPGWPVTLPDPGMSLTDRGVMSYVRHVLSCLGGGLALWRAGQWLWAQRLGHCHTYWAVSEELLPNSGHGPDGEVPKDKEGGVFDLGPFIVDLITFTEGSGRSPRYALWFCVGESWPQDQPWTKRLVMVKVVPTCLRALVEMARVGGASSLENTVDLHISNSHPLSLTSDQYKAYLQDLVEGMDFQGPGES
notes: also called pGEX6P-1-GST-IRF3; not shown: GST, N-terminal, kept
B1: binds.
